Columns and labels:
[1] = molecular target: filamentous actin (rabbit muscle) (rabbit) (UniProt P68135); assay: co-sedimentation; conditions: scale: actin per fragment
[2] = molecular target: C0 fragment of cardiac myosin binding protein C (MyBP-C) (human); assay: pull-down + co-IP

Row | Substance | stoichiometry N [1] | concentration that gives half-maximum binding [2] [µM]
1 | C0C2 fragment of cardiac MyBP-C (domain or fragment) | 7 | –
2 | filamentous actin (rabbit muscle) (from UniProt P68135 1-377) (natural protein) | – | < 10

Source: PMC2229591
